The supplement of paper PMC12636428

Each sequence was assayed on Saccharomyces cerevisiae (assay: transcriptional activation domain activity (GFP:mCherry ratio, weighted mean of sorted bins, harmonized to initial dataset scale) (arbitrary fluorescence ratio units); higher = stronger transcriptional activation). Settings: beta-estradiol 1 µM; induction time 4 h.
How it was run: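 The listed activation activity is a read-weighted mean of bin median fluorescence, averaged across barcodes and linearly mapped onto the initial dataset scale. Barcoded tiles, fused to an estradiol-inducible synthetic transcription factor, were integrated at URA3 in yeast diploids bearing a GFP reporter. Cells were held 4 hours at 30 °C in SC with 1 uM beta-estradiol, sorted into 8 GFP:mCherry bins, and sequenced, and tiles with fewer than 50 reads were excluded.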

| Sequence | transcriptional activation domain activity |
| --- | --- |
| KQYCVRPNSGRIDPGKEVEVQVLLQAMKEDPPLDAKCRDKFLVQSVAVSADKE | 64500 |
| MLLTFFFPLYCTSSFRVTQFLYPFQTLLFTFVFQAYLLLFLLFLLLLLLCFSP | 41000 |
| AIHRQLVESILGTTLRCTADISALDVSIADTLWYLLDGTARMVIQFFAVVLFA | 62700 |
| PRKFICLTNQLTARLGCELDKDHDLFKRTLYAVVQYVLVNHPHHILYNLIALS | 46000 |
| HLKHTFVMDVAMSIGYLMAPVLVSACAFIWYVKVDNHELSASVVFVSITLFDM | 61800 |
| GSSQNTDQPHKSRKKRQREQDEDDTSTNKRSHRKSKKHKSSRKHKSSRKTAKT | 25100 |
| KFIGYQWAYFAVISGALLYAWSRVIMLFVLRILPQDIRLIAFIITSIYCLILL | 24900 |
| EQPSAPAAAANSEEPDNKEAEKTETGAAAENKEAVANNGSESAEKEPAETSAS | 23500 |
| RLAGGLRGLTGLEKEELRKRGWGLGWWMMRGAFYENITKAWIHTVTRKLKNKP | 47300 |
| ILENKGLNEDLSSHIYEKEAPKFDSDIDISRFGTNDAVIFNNDGWDTSLPIDF | 102000 |
| LRLVIENIQKYGNLVCLTCHDFRRKDLLLGVGLYFLIPCFLWVALSIELVAAR | 63600 |
| ITQRLGENIICAVCITYLHSLLLVTILDRSEGCLLQYSLRMHIASKFQPSHQF | 51500 |
| MGLIIYLGHMGCLMPRDDPTLFTIIHTNGIHHVCIVFCSCAISVHPWQQLLCH | 29000 |
| KAQDDKEADDSPKKKPAKRSRKKAAADDGDDDEEEAQPAKKKAKGGRKSKAAA | 39400 |
| SLRLLLTVLAGYPIAIVYRLIFLNKTSTIIGASARNWFCLVAGLSLSYYFNSF | 70800 |
| IFLFHINHAVFKSVVWWIGVFFFVYVLITIMPILRYDSPYYSPLSASVWFLYT | 45800 |
| MSSGFSWSTCSFFFFFFFFLLLLLLLFFWFFLFGLSWRDSLVFFPFFFFLSLF | 17800 |
| SVRHWELRVRAKYGRVLCRFLAQIEFDPFLLSDSSKRAILTVLRAVADIMVEC | 42400 |
| QPSAFGQTNTATNAFGQPQQQSAFGSTPTTGAFGSTNTAFGQNRPAFGSTTTP | 23600 |
| DPFVEQNNDITTALLNNELFQGPSLSDEVTDWFGASEDIGLEFVEPWTELIEQ | 144000 |
| YQTGYFSEAHFFLFFLFFYFRKSFSFQSNCISYTLPFGLLPIFFSTTIVLFWF | 66400 |
| MLLFSKLYYEAVGVGCLSYFDFQSLQVWVLDICASWYFVLAFNSYFVVSLFFG | 36200 |
| MYCMRYFVPLLLLPFPDAPPVFVILFLISFFLHQKPCIYCTLLLIALFCSTCY | 72300 |
| GDFNDKTLKENCRVDSQQDCYDLAQLQILESDFWKTIAFSKPFYAVDENSSIF | 102000 |
| GSEDESEGSEDESSEDEEDEEKALDKKMEIQDQTNTNLVNLRKTIYLTIMSSI | 43400 |

| Sequence | transcriptional activation domain activity |
| --- | --- |
| ETVQKYDGYRPDILSIWNNEFYPIGKYNDDMTGFKFQMRIKEMQEFLDMEKYS | 68500 |
| GHSGNNAHSHLQKPHGHAGKTRSEVGGRSGEGGEGNGGAGGGELGKGVAAGRL | 13700 |
| RLRLSCYIMMCVVTSYSTWAIVSGYFTCVPVAKFWDPTIKGHCLNFQALWFFN | 61900 |
| SYFIAAIINWEMSGFFLFSYEYVHKDLNLGCSNLYFTWYALFKEYGAPLVPMS | 45100 |
| RDWRYVPEYVMRICRAHHADKPSVQMLVRKCFLEHIVNLTFTSFKALMSSKMS | 42700 |
| QESIPHQVGFSTPQLTAQQLIENAIESGVVDLETLDLPPFLSLDGLPPASSSA | 116000 |
| IVLYLRCFWLSVMFYTYSLFFIKMTFLLNYYRLLLVSKMRSVCIAAIVIIVLW | 72100 |
| LYPQDLVSSPAMSHLTANNDDFDDLLSVASMNSNYLLPVNSHGYKHISNLDEL | 69100 |
| NDGNESNEDYLGNEKFYLNEILPDEESKLRWKRVFENSENDHDNEKNFLTDWE | 39900 |
| LKGDHLDAVMVPKCESAADLHFVTDVIRHLRPDRHPSSTASASSSGSRREPVR | 33200 |
| MYVLAISQTRAWTNLNLFRSCMVGLVNLCVILLKMLPIVVFCTLWYNVDLNIP | 73400 |
| MKVDLNKHPSCRRIIWVGYTKICTFLIPDKLLVYLSLTTQARRIAWREKLTLF | 59600 |
| KHLAEAGLGIAAAGAAKELYDHRKHHRSSSVSSSGGEHNHNGRHIAAAALGAT | 28000 |
| MFCLRSWLPLLFIPTNAPPIFVFLFFVCTFFLSRPCVYCSFLLAILFLTSCYW | 65100 |
| GAEEGAKEKAGEVAKKRKREVAAAVEDEEGGQPKAEKVRTKKGGGKSKEKKDS | 27400 |
| ISVLGNQQIPGISHGDGLLPDVDGLLGNDTFWSFTDAAWMGEIEDNISGFIWD | 143000 |
| LFLFLFLIFFSFLKCTFTYIFVPRFRFSLFSHSGPAVSLVYILGLLGYWGVNV | 55100 |
| MMAPSCSICLPLVLPPLLCQIFSPLILSLFPYPLHCLCMLFFQLIYMPLFFFF | 68200 |
| QGASAGVSPIFKKEKYTLKWKRVKEFNLIFVAVYQSLLHLGWIDRLLENISTI | 67900 |
| LLFVTDWALVGLGRFSESCIFFFLFSLWYNFCLHRFFISPTLYSSLTWHCVTS | 42800 |
| AFIHRLHEVYIVAWCMKNVHFMYLHPGVPFYVLCDCTRGDTIMTVHACAEPPP | 63000 |
| MKILYCILCMLFFFLFLSFYIQKKILFSLTCVFTLPPLSLFLFFFLFIVQILC | 55700 |
| LLKPNSCHFLLRNDIVFYKWTYYVAVIINVALRFAWTLNLANLSLNPQLLIFI | 56100 |
| WLLFLQEYGTITLTLLQSLEYWISNIDLTDESKSQLSKQGRACMYHLIVLTLR | 53700 |
| MLLLLITHIGIAILFVCWNPRFSCPNQSPDQQGTCRLFNMYILISSWIIPAFL | 55600 |

| Sequence | transcriptional activation domain activity |
| --- | --- |
| HSPEAANAALRAMDGHSLEGHALKIQGSHRGADAAEERRKEDAAKKATGTKIL | 44000 |
| MTWFGILPPFSWPWIYPRSFGMCGNLSTTLFLHVLIALFFFFCLFFHLCLLWL | 50200 |
| MLLLSPFFPFLLPSSLSFFFPFPFISTLLSFCLSDTLFNLARSFFIAFLSTLF | 42600 |
| LNWYWLATTMYFLYGESVIYYFKHIVLVDKVLLPLATHHRFISFILYVFGFVF | 71900 |
| PDGSAITGSAVTKRKQSKSRNGCITCKAKRLKCDETKPSCQQCAKRSVTCGGY | 28100 |
| MVWFWFWLRYLFFFFFLFSKNTLIGLFLLLLLLLHLFLRSLPILLVCASRVFF | 53300 |
| FYSRVASSTLLFFWLTSLISNGIIIRTNYLLDQHHSRLLLFALLVVQELLCVL | 68600 |
| EAPAPKKARGRPKKAAVKEDDAGSEEEAPAPKKAKGRLPKAVLKEEAESEAEA | 12900 |
| HSPYLNSEADFSQILSSAPPVHHDPNETHQENQDIIDRFANSSQEHNEYILQY | 66200 |
| RTILLASYIFSNIFVCLIVLNDSLKILWWLGDSYWHKIWFFRIWLWANSISFL | 74800 |
| LRPGRQAQRRHVLALQARPALLLPPDLDARAVQPAHRQPQGPEEGGRAGPARP | 15100 |
| MYNTALITIYLLLLLRRIFFTWSYLAYSFNFIATRVFARITMLMLVELFRQHD | 67400 |
| MDILDIFFLFYSLLVSFLFFSLLIPPLFLSSFISISFYFFDGVLCVLLGFFFR | 61500 |
| EQQCICNYITSDPIWLIPLLGLLHRRLMYKVRLIYPFHISLANAFVTVCFHWL | 80900 |
| FLHLLKYIRPSFAFYFTILFWWCIQVQLLLQIIINRIRVIVPDRRHSRHIMIA | 68800 |
| ARGTTTPPPAPSTGSPSAPAAASRSSTGRSSATASCRTARCARASGRSAPGAG | 42900 |
| MLTHLHFVEQPLTPPFFSVSITSFLLRSFAFPPCVLPSVAFFLCLFCFLPLLV | 56500 |
| RRARAHAGMRTRARGGQRAEGVGGVQKARRQTAQGARGACRGREGRRAAGGRL | 8470 |
| EMVDIFAHMDNIERLIAPFSVLAEHEVFHFNMLRIYYLTLRLLVLLHGVIEVK | 75200 |
| MLRTWVLLLLVGLLGVFVRADDEPASEEPKSGGLSLSRLSQLVTSGVTGARPP | 39300 |
| MALEQRCQPTCEAVLLFLLLLFLPLWLLFERFKNLLLLLWPLFFFFFLLLLLW | 35100 |
| KLGFQVLVQVILVIWYKPDKIPSAVNVDKEIKKGEPVDNKARVLVECVLDVFQ | 51700 |
| MLHAGVSNKIAKGWPKEGSCDRASFVHEGVLMMCQRSLVTFIVRSLLLMCYYF | 36800 |
| AKRGQNEALAGAKPERGGAGAKQDARAARGRAQGSGVRGAGRGAAGRGQAQQV | 41100 |
